The results in this text go back to patent publication US20210353784A1, “DETECTING AND TREATING CANCERS USING CELL PENETRANT MTP53-OLIGOMERIZATION-DOMAIN PEPTIDE” (priority 2020, published 2021).

In one data set the test system is MDA-MB-468 cells. As to conditions: 500 nM, 24 h; mtp53 R273H. The protocol: (§1) Three independent experiments with biological replicates were performed for all ±SEM *p-value ≤0.05, **p-value ≤0.01, ***p-value ≤0.001.
(§2) Toxicity to normal cells and tissues represents an important barrier for drug delivery, and an advantage of cell penetrating peptide-based therapies is their low toxicity compared to most drug carriers. To evaluate the toxicity of Cy5p53Tet to breast cancer cells and normal breast mammary epithelial cells, the viability of cells was evaluated following peptide treatment (FIG. 1G).
(§3) Peptidecytotoxicity Assay. A total of 1.25×10^5 cells were seeded in a 12-well plate the day before and grown at 37° C. Cells were treated with 500 nM Cy5p53Tet for 24 h, and 0.1 mL MTT solution [5 mg mL^−1 (3-(4, 5-dimethylthiazolyl-2)-2, 5-diphenyltetrazolium bromide] was added to the cells and incubated at 37° C. for 1 h. The cells were then resuspended in 0.04 N hydrochloric acid diluted in isopropanol and incubated in the dark on a shaker for 5 min at room temperature. The absorbance was quantified at 550 nm, and the background absorbance was subtracted at 620 nm.

The subject of the next data set is HCC70. As to conditions: 500 nM, 24 h; mtp53 R248Q. The protocol:
as §1, §2, §3

A further data set concerns the target mtp53 R273H (Homo sapiens, UniProt P04637, R273H). Description: Co-immunoprecipitation assay with purified mtp53 R273H. The format is binding. As to conditions: anti-p53 antibody sample; molar ratio 1:1; not by normal IgG. The protocol: Anti-p53 DO1 antibody-coupled magnetic beads were used to pull down Cy5p53Tet/mtp53 complex, and normal mouse IgG-coupled magnetic beads were used as a control.
To experimentally determine if Cy5p53Tet binds to mtp53 R273H, a co-immunoprecipitation assay was performed using purified mtp53 mixed with Cy5p53Tet in a molar ratio of 1:1 (FIG. 3C). The co-immunoprecipitation was carried out using anti-p53 antibody or nonspecific IgG.
Co-immunoprecipitation Assay. Magnetic beads were used for co-immunoprecipitation assays, and 50 μL of the bead suspension was placed in each sample. The beads were washed twice with 1×PBS-0.1% Tween-20 by vortexing for 10 s. The beads were resuspended in 1×PBS-0.1% Tween-20 with either 1 μg of anti-p53 DO1 antibody or 1 μg of normal mouse IgG at a final volume of 100 μL. The tubes were incubated at room temperature for 10 min with continuous mixing. The beads were washed three times with 1×PBS-0.1% Tween-20, and 1 μg of purified mtp53 R273H and 100 ng of Cy5p53Tet peptide were incubated with the immobilized antibody at 4° C. for 150 min with constant rotation. Beads were pelleted and then washed with 1 mL 1×PBS-0.1% Tween-20 four times at room temperature. Bound proteins were eluted by incubating in 2×SDS Laemmli sample buffer containing 0.2 M DTT, heated at 95° C. for 10 min, and loaded on 15 or 10% polyacrylamide gel.

For “H-CysCy5-RKKRRQRRGEYFTLQIRGRERFEMFRELNEALELK-OH (N-terminal Cy5; Synthetic peptide based on p53 protein) [Cy5p53Tet]”, the “mitochondrial activity reduced by” value is 10.6% in the data set on MDA-MB-468 cells and 13.6% in the data set on HCC70. Besides, in the data set with mtp53 R273H, the “pull-down of Cy5p53Tet with mtp53 R273H” value is reported as “significantly pulled down”.
